Experimental findings from patent US20220380459A1 (DRAGONFLY THERAPEUTICS, published 2022) are described below.

Where two headings read alike, the source gives them in different places.

Experiment [1] addresses T1, human CD33 extracellular domain (human, UniProt P20138 18-259).
T1 construct: soluble monomeric ECD; also called human CD33 ECD; hCD33
Nature of the experiment: BLI Octet, IgG loaded.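 Further: IgGs captured on AHC biosensors, exposed to 100 nM antigen for 3 min association then 3 min dissociation in buffer, kinetics fitted with a 1:1 binding model.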
Procedure: Briefly, ForteBio affinity measurements were performed by loading IgGs on-line onto AHC sensors. Sensors were equilibrated off-line in assay buffer for 30 min and then monitored on-line for 60 seconds for baseline establishment. Sensors with loaded IgGs were exposed to 100 nM antigen for 3 minutes, and afterwards were transferred to assay buffer for 3 min for off-rate measurement. All kinetics were analyzed using the 1:1 binding model.

The target of experiment [2] is T2, deglycosylated V domain of human CD33 (human, UniProt P20138 18-139, limits assumed, N-glycans removed by PNGase).
T2 construct: V domain deglycosylated by PNGase before testing; also called deglycosylated V CD33
The experiment can be described thus: SPR, Fab captured, 37C.
Procedure: (§1) Kinetics and affinity of a series of Fab fragments of anti-CD33 antibodies with different CD33 variants (human CD33 ECD, cyno CD33 ECD, V-domain of human CD33, C-domain or human CD33 and selected CD33 SNPs) were assessed by surface plasmon resonance using Biacore 8K instrument (GE Healthcare). Anti-Fab antibody was immobilized on a CMS chip using standard amine coupling chemistry. CD33 FABs were captured on the anti-Fab chip at a density of ˜100 RU. Solutions containing different concentrations of soluble monomeric CD33 or its domains were injected over the captured FABs and control surfaces at 30 μl/min at 37° C. Surfaces were regenerated between cycles by quick injection of 10 mM glycine, pH 1.8. To obtain kinetic rate constants double-referenced data were fit to a 1:1 interaction model using Biacore 8K Evaluation software (GE Healthcare). The equilibrium binding constant KD was determined by the ratio of binding rate constants kd/kₐ.
(§2) The ability of anti-CD33 antibodies to recognize glycosylated CD33 was assayed. […] De-glycosylation status was confirmed by a shift on SDS-PAGE and MS.

The target in another experiment is T3, C domain of human CD33 (human, UniProt P20138 140-259, limits assumed).
T3 construct: recombinant C domain
The experiment can be described thus: SPR, Fab captured, 37C. (SPR reads the build-up and loss of mass on a sensor chip optically.)

For experiment [3], the target named is T4, cyno CD33 extracellular domain (Cynomolgus/Rhesus (cyno)).
T4 construct: soluble monomeric ECD; also called cyno CD33 ECD
The experiment can be described thus: SPR, Fab captured, 37C.

For experiment [4], the target named is T5, V domain of human CD33 (human, UniProt P20138 18-139, limits assumed).
T5 construct: recombinant, fully glycosylated V domain; also called Human CD33 V domain
Nature of the experiment: SPR, Fab captured, 37C.
Procedure: as §1

Experiment [5] deals with T5, V domain of human CD33. Nature of the experiment: SPR, Fab captured, 37C. The source holds these as a separate data set.
Procedure: as §1, §2
Experiment [6] has as its target T1, human CD33 extracellular domain. Nature of the experiment: SPR, Fab captured, 37C.
The target is the same in experiment [7]. The experiment can be described thus: SPR, Fab captured, 37C. The source holds these as a separate data set.
Procedure: as §1
The target is the same in experiment [8]. Nature of the experiment: SPR, Fab captured, 37C. The source holds these as a separate data set.

Procedure for C domain of human CD33: as §1
The binding interface between the Fab fragment of each CD33 antibody to CD33 was mapped.

B1: ADI-11839 IgG (antibody, V domains shown)
VH: QVQLVQSGAEVKKPGASVKVSCKASGYTFSNYYMHWVRQAPGQGLEWMGWINPFSGGTRYAQKFQGRVTMTRDTSTSTVYMELSSLRSEDTAVYYCARDVGSSAYYYMDVWGKGTTVTVSS
VL: DIQMTQSPSSVSASVGDRVTITCEASKGISSWLAWYQQKPGKAPKLLIYAASDLQSGVPSRFSGSGSGTDFTLTISSLQPEDFATYYCQQAFLFPPTFGGGTKVEIK
notes: IgG; also called Ab28
Broadly, the Kd is the equilibrium constant for the complex coming apart. Low readings indicate tighter binding, high ones weaker binding. One may read the koff as the first-order rate constant of dissociation. A high value points to a short-lived complex. In general, kon refers to the second-order rate constant of association. Higher therefore signals fast association. In experiment [1], B1 returned a dissociation constant Kd of 2450 pM, an off-rate constant (koff) of 0.00172 s⁻¹ and a kon of 704000 M⁻¹ s⁻¹.

B2: ADI-10165 Fab (Fab, V domains shown)
VH: EVQLVESGGGLVQPGGSLRLSCAASGFTFSSYWMSWVRQAPGKGLEWVANIKQDGSEKYYVDSVKGRFTISRDNAKNSLYLQMNSLRAEDTAVYYCARDVGPGIAYQGHFDYWGQGTLVTVSS
VL: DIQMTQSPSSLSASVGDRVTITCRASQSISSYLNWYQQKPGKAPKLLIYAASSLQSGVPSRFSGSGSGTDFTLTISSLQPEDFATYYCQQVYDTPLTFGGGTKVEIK
notes: Fab fragment; also called Ab19
With B2, in experiment [2], the Kd turned out to be 156000 pM, the koff is 0.203 s⁻¹ and the on-rate (kon) was 1.3e+06 M⁻¹ s⁻¹. In addition, in the experiment with C domain of human CD33, the binding result is “no binding”. In addition, the binding result in experiment [3] was “no binding (tested: 100 nM)”.

B3: ADI-10158 Fab (Fab, V domains shown)
VH: QVQLQQWGAGLLKPSETLSLTCAVYGGSFSGYYWSWIRQPPGKGLEWIGEIDHSGSTNYNPSLKSRVTISVDTSKNQFSLKLSSVTAADTAVYYCARQGIHGLRYFDLWGRGTLVTVSS
VL: EIVMTQSPATLSLSPGERATLSCRASQSVSSYLAWYQQKPGQAPRLLIYDASNRATGIPARFSGSGSGTDFTLTISSLEPEDFAVYYCQQDHNFPYTFGGGTKVEIK
notes: Fab fragment; also called Ab14
With B3, the Kd with V domain of human CD33 [4] was 127000 pM; in the experiment with V domain of human CD33 [5], 127000 pM; in [2], 88100 pM. Also, the values for the koff (in the experiment with V domain of human CD33 [4]; with V domain of human CD33 [5]; in experiment [2]) were 0.133 s⁻¹, 0.133 s⁻¹ and 0.231 s⁻¹, respectively. For the same molecule, the results for the kon (in the experiment with V domain of human CD33 [4]; with V domain of human CD33 [5]; in [2]) were 1.04e+06 M⁻¹ s⁻¹, 1.04e+06 M⁻¹ s⁻¹ and 2.63e+06 M⁻¹ s⁻¹, respectively. In addition, the binding result with C domain of human CD33 is given as “no binding”; in experiment [3], “no binding (tested: 100 nM)”.

B4: ADI-10168 Fab (Fab, V domains shown)
VH: QVQLVQSGAEVKKPGSSVKVSCKASGGTFSSYAISWVRQAPGQGLEWMGSIIPIFGTANYAQKFQGRVTITADESTSTAYMELSSLRSEDTAVYYCAREVGYGWYTKIAFDIWGQGTMVTVSS
VL: EIVLTQSPATLSLSPGERATLSCRASQSVSSYLAWYQQKPGQAPRLLIYDASKRATGIPARFSGSGSGTDFTLTISSLEPEDFAVYYCQQSSNHPSTFGGGTKVEIK
notes: Fab fragment; also called Ab21
As for B4, the binding result with V domain of human CD33 [4] is on record as “no binding”; in [2], “no binding”; with C domain of human CD33, “no binding”; in experiment [3], “no binding (tested: 100 nM)”.

B5: ADI-11776 Fab (Fab, V domains shown)
VH: EVQLLESGGGLVQPGGSLRLSCAASGFTFSKYTMSWVRQAPGKGLEWVSAIVGSGESTYFADSVKGRFTISRDNSKNTLYLQMNSLRAEDTAVYYCAREGGPYYDSSGYFVYYGMDVWGQGTTVTVSS
VL: DIQMTQSPSTLSASVGDRVTITCRASQSISSWLAWYQQKPGKAPKLLIYKASSLESGVPSRFSGSGSGTEFTLTISSLQPDDFATYYCQQYDDLPTFGGGTKVEIK
notes: Fab fragment; also called Ab3; H76
For B5, the dissociation constant Kd in [6] is 780 pM; with V domain of human CD33 [4], 330 pM; in [7], 780 pM; with V domain of human CD33 [5], 330 pM; in [2], 280 pM; in experiment [3] it was 1810 pM. The molecule also had a Kd in experiment [8] of 780 pM. The koff in [6] came out at 0.00124 s⁻¹; with V domain of human CD33 [4] it was 0.00143 s⁻¹; in experiment [7], 0.00124 s⁻¹; with V domain of human CD33 [5], 0.00143 s⁻¹; in experiment [2], 0.00136 s⁻¹; in experiment [3] it was 0.00472 s⁻¹. Besides, the dissociation rate constant (koff) in experiment [8] came to 0.00124 s⁻¹. The on-rate constant (kon) was found to be 1.6e+06 M⁻¹ s⁻¹ in experiment [6]; 4.52e+06 M⁻¹ s⁻¹ in the experiment with V domain of human CD33 [4]; 1.6e+06 M⁻¹ s⁻¹ in experiment [7]; 4.52e+06 M⁻¹ s⁻¹ with V domain of human CD33 [5]; 4.85e+06 M⁻¹ s⁻¹ in experiment [2]; 2.62e+06 M⁻¹ s⁻¹ in experiment [3]. This molecule also displayed an on-rate (kon) in [8] of 1.6e+06 M⁻¹ s⁻¹. Moreover, the binding result with C domain of human CD33 is listed as “no binding”.

B6: Fab fragment from Lintuzumab (Fab, V domains shown)
VH: QVQLVQSGAEVKKPGSSVKVSCKASGYTFTDYNMHWVRQAPGQGLEWIGYIYPYNGGTGYNQKFKSKATITADESTNTAYMELSSLRSEDTAVYYCARGRPAMDYWGQGTLVTVSS
VL: DIQMTQSPSSLSASVGDRVTITCRASESVDNYGISFMNWFQQKPGKAPKLLIYAASNQGSGVPSRFSGSGSGTDFTLTISSLQPDDFATYYCQQSKEVPWTFGQGTKVEIK
notes: Fab fragment
As to B6, in [3], the binding result was “no binding (tested: 100 nM)”. In addition, in [8], the Kd was found to be 16700 pM, the koff amounted to 0.0122 s⁻¹ and the association rate constant (kon) came out at 735000 M⁻¹ s⁻¹.

B7: Lintuzumab (antibody, V domains shown)
VH: QVQLVQSGAEVKKPGSSVKVSCKASGYTFTDYNMHWVRQAPGQGLEWIGYIYPYNGGTGYNQKFKSKATITADESTNTAYMELSSLRSEDTAVYYCARGRPAMDYWGQGTLVTVSS
VL: DIQMTQSPSSLSASVGDRVTITCRASESVDNYGISFMNWFQQKPGKAPKLLIYAASNQGSGVPSRFSGSGSGTDFTLTISSLQPDDFATYYCQQSKEVPWTFGQGTKVEIK
notes: IgG; also called lintuzumab IgG
As for B7, in experiment [1], binding was characterised by a dissociation constant (Kd) of 2210 pM, the koff worked out at 0.000952 s⁻¹ and the kon worked out at 431000 M⁻¹ s⁻¹.

B8: ADI-11807 Fab (Fab, V domains shown)
VH: EVQLVESGGGLVQPGGSLRLSCAASGFTFGSYWMSWVRQAPGKGLEWVATIKQDGSEKSYVDSVKGRFTISRDNAKNSLYLQMNSLRAEDTAVYYCARPLNAGELDVWGQGTMVTVSS
VL: DIQMTQSPSTLSASVGDRVTITCRASQSISSWLAWYQQKPGKAPKLLIYEASSLESGVPSRFSGSGSGTEFTLTISSLQPDDFATYYCQQSQSYPPITFGGGTKVEIK
notes: Fab fragment; also called Ab5; I07
In the case of B8, the Kd came to 290 pM in experiment [6]; 280 pM in the experiment with V domain of human CD33 [4]; 290 pM in experiment [7]; 280 pM with V domain of human CD33 [5]; 190 pM in [2]; 150 pM in experiment [3]. Further, the equilibrium dissociation constant (Kd) in [8] was determined as 290 pM. The off-rate (koff) in [6] stood at 0.000332 s⁻¹; with V domain of human CD33 [4], 0.000847 s⁻¹; in experiment [7] it was 0.000332 s⁻¹; in the experiment with V domain of human CD33 [5], 0.000847 s⁻¹; in experiment [2] it was 0.000745 s⁻¹; in experiment [3], 0.000151 s⁻¹. In addition, in experiment [8], the dissociation rate constant (koff) was 0.000332 s⁻¹. For the same molecule, the association rate constant (kon) in experiment [6] was 1.14e+06 M⁻¹ s⁻¹; with V domain of human CD33 [4] it was 3.07e+06 M⁻¹ s⁻¹; in experiment [7], 1.14e+06 M⁻¹ s⁻¹; in the experiment with V domain of human CD33 [5] it was 3.07e+06 M⁻¹ s⁻¹; in experiment [2], 3.9e+06 M⁻¹ s⁻¹; in experiment [3], 998000 M⁻¹ s⁻¹. This molecule also displayed a kon in [8] of 1.14e+06 M⁻¹ s⁻¹. Besides, in the experiment with C domain of human CD33, the binding result is “no binding”.

B9: ADI-11809 Fab (Fab, V domains shown)
VH: EVQLVESGGGLVQPGGSLRLSCAASGFTFPSYWMSWVRQAPGKGLEWVATIKRDGSEKGYVDSVKGRFTISRDNAKNSLYLQMNSLRAEDTAVYYCARPLNAGELDVWGQGTMVTVSS
VL: DIQMTQSPSTLSASVGDRVTITCRASQSISSWLAWYQQKPGKAPKLLIYEASSLESGVPSRFSGSGSGTEFTLTISSLQPDDFATYYCQQSQSYPPITFGGGTKVEIK
notes: Fab fragment; also called Ab6
Turning to B9, the Kd in experiment [6] came to 1.2 pM; with V domain of human CD33 [4], 300 pM; in [7] it was 1.2 pM; with V domain of human CD33 [5], 300 pM; in experiment [2] it was 210 pM; in [3], 118 pM. The molecule further yielded a Kd in experiment [8] of 1.2 pM. The off-rate (koff) in experiment [6] was determined as 1.23e-06 s⁻¹; with V domain of human CD33 [4], 0.000769 s⁻¹; in experiment [7], 1.23e-06 s⁻¹; with V domain of human CD33 [5], 0.000769 s⁻¹; in [2], 0.000711 s⁻¹; in experiment [3], 0.000126 s⁻¹. Also, the koff in experiment [8] stood at 1.23e-06 s⁻¹. Further, the kon worked out at 1.02e+06 M⁻¹ s⁻¹ in experiment [6]; 2.6e+06 M⁻¹ s⁻¹ with V domain of human CD33 [4]; 1.02e+06 M⁻¹ s⁻¹ in [7]; 2.6e+06 M⁻¹ s⁻¹ with V domain of human CD33 [5]; 3.4e+06 M⁻¹ s⁻¹ in experiment [2]; 1.06e+06 M⁻¹ s⁻¹ in [3]. The same molecule had a kon in experiment [8] of 1.02e+06 M⁻¹ s⁻¹. Further, in the experiment with C domain of human CD33, the binding result was “no binding”.

B10: ADI-11835 IgG (antibody, V domains shown)
VH: QLQLQESGPGLVKPSETLSLTCTVSGGSISSTDYYWGWIRQPPGKGLEWIGSIGYSGTYYNPSLKSRVTISVDTSKNQFSLKLSSVTAADTAVYYCARETAHDVHGMDVWGQGTTVTVSS
VL: EIVLTQSPATLSLSPGERATLSCRASHSVYSYLAWYQQKPGQAPRLLIYDASNRATGIPARFSGSGSGTDFTLTISSLEPEDFAVYYCQQYDNLPTFGGGTKVEIK
notes: IgG; also called Ab10; I35
In [1], B10 had a dissociation constant (Kd) of 281 pM, an off-rate constant (koff) of 0.000237 s⁻¹ and a kon of 844000 M⁻¹ s⁻¹.
